Reference: patent publication US20210246218A1 (LYVGEN BIOPHARMA SUZHOU, published 2021)

How the values were obtained:
[1] = target: T1, rat CD137 protein (rat, UniProt Q4W8J3 24-189); assay: ELISA, protein coated at 1 µg/mL
T1 construct: Coated on ELISA plates; also called Rodent CD137
T1 sequence: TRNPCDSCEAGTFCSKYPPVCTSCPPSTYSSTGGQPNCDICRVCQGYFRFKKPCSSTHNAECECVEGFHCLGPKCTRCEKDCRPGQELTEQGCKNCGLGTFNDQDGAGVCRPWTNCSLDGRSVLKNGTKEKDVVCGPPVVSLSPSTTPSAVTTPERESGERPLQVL
Experimental: (§1) The plate was decanted and washed once; assay diluent was added at 200 μL/well. After a 1-hour incubation at room temperature, the plate was washed with PBST one time. […] These samples were added into the plate 50 μL/well. The plate was incubated 1 hour at room temperature and then washed three times with PBST. Goat anti-human IgG-H+L HRP-conjugated at 1:100,000 dilution or goat anti-mouse IgG (H+L) secondary antibody, HRP, at 1:50,000 dilution was added to the plate at 100 μL/well. The plate was incubated 1 hour at room temperature followed by washing with PBST four times. The TMB substrate solution was added 100 μL/well. The color was permitted to develop for 15 minutes and then 100 μL/well 2N H₂SO₄ was added to terminate the reaction. Absorbance at 450 nm and 620 nm was determined by a Tecan F200 Pro reader.

[2] = target: human PD-1 protein (human, UniProt Q15116 25-167); assay: ELISA, protein coated at 1 µg/mL
Experimental: as §1

[3] = target: T2, human B7-H4 protein (human, UniProt Q7Z7D3 29-258, limits assumed); assay: ELISA, protein coated at 1 µg/mL
T2 sequence (looked up): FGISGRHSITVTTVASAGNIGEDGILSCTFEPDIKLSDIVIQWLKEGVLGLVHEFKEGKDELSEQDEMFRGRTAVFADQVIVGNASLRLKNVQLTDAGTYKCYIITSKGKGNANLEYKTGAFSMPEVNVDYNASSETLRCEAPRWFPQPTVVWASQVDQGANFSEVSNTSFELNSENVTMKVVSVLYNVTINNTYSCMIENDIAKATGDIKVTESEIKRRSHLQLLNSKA
Experimental: as §1

[4] = target: human CD40 protein (human, UniProt P25942 21-193); assay: ELISA, protein coated at 1 µg/mL
Experimental: as §1

[5] = target: T3, Ly049; assay: ELISA, CD137 protein coated, clone 3712 titrated; flat curve, fit marked ~ (see non_binding)
T3 chain: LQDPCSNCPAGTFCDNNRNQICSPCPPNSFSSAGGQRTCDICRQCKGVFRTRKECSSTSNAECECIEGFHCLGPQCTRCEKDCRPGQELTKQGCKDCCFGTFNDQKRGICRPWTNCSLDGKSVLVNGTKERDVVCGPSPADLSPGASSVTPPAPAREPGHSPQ
Experimental: (§2) For the data shown in FIGS. 16C-D, chimeric CD137 receptor protein samples were diluted in DPBS to 5 μg/mL and then coated onto an ELISA plate (Corning, Catalog number: 9018, high binding) at 50 μL (0.25 μg) per well, and incubated at 4° C. overnight. The plate was decanted and washed once; assay diluent was added at 200 μL/well. After a 1-hour incubation at room temperature, the plate was washed with PBST one time. […] The plate was incubated 1 hour at room temperature and then washed three times with PBST. Goat anti-human IgG-H+L HRP-conjugated at 1:100,000 dilution or goat anti-mouse IgG (H+L) secondary antibody, HRP, 10 at 1:50,000 dilution was added to the plate at 100 μL/well. The plate was incubated 1 hour at room temperature followed by washing with PBST four times. The TMB substrate solution was added 100 μL/well. The color was permitted to develop for 15 minutes and then 100 μL/well 2N H2SO4 was added to terminate the reaction. Absorbance at 450 nm and 620 nm was determined by a Tecan F200 Pro reader.

[6] = target: T4, Ly051; assay: as above
T4 chain: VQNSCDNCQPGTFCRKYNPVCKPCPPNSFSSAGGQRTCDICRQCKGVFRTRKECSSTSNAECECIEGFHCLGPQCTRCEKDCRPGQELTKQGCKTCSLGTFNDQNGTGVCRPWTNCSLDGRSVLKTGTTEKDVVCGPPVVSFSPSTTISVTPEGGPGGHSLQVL
Experimental: as §2

[7] = target: T4, Ly051; assay: ELISA, clone 3712-IgG1v coated, CD137 protein titrated (EC50 is a concentration of the CD137 protein); curve only begins to rise: about 0.42 at 100000 ng/mL, no plateau, fit marked ~
Experimental: The plate was decanted and washed once; assay diluent was added 200 μL/well. After one-hour incubation at room temperature, the plate was washed with PBST one time. CD137 receptor human/mouse chimeras were diluted in assay diluent to 100 or 10 μg/mL, and then a 4-fold serial dilution in assay diluent for 11 points to final concentrations of 100000, 25000, 6250, 1562.5, 390.63, 97.66, 24.41, 6.10, 1.53, 0.38 and 0.095 ng/mL or 10000, 2500, 625, 156.25, 39.06, 9.77, 2.44, 0.61, 0.15, 0.038 and 0.0095 ng/mL. The diluted CD137 receptor was added to the assay plate, 50 μL/well, in duplicate. The plate was incubated one hour at room temperature and then washed three times with PBST. Goat anti-human IgG-H+L HRP conjugated at 1:100,000 20 dilution was added to the plate at 100 μL/well. The plate was then incubated one hour at room temperature followed by washing with PBST four times. The TMB substrate solution was added at 100 μL/well. The color was allowed to develop for 15 minutes, and was stopped with 100 μL/well 2N H2SO4. Absorbance at 450 nm and 620 nm was determined by a Tecan F200 Pro reader.

human PD-1 protein, sequence (Q15116 25-167 limits assumed): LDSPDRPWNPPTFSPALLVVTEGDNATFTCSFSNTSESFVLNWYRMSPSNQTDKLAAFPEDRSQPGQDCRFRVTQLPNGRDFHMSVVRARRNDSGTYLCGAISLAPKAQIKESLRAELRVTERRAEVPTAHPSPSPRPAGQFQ
human CD40 protein, sequence (P25942 21-193 limits assumed): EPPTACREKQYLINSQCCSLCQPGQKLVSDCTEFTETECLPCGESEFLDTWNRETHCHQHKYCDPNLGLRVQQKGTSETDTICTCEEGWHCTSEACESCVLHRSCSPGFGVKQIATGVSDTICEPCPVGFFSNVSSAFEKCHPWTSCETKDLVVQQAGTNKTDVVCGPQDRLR

EC50 [5]: ~0.903 µg/mL
EC50 [6]: ~0.00101 µg/mL
EC50 [7]: ~466 µg/mL
B1: Clone 3712-IgG1v (IgG1v/kappa) (antibody)
heavy: QVQLVQSGAEVKKPGASVKVSCKASGYTFAGFEMHWVRQAPGQGLEWMGAIDPKTGGTDYNQKFKDRVTMTRDTSISTAYMELSRLRSDDTAVYYCARDLGYFDVWGQGTLVTVSSASTKGPSVFPLAPSSKSTSGGTAALGCLVKDYFPEPVTVSWNSGALTSGVHTFPAVLQSSGLYSLSSVVTVPSSSLGTQTYICNVNHKPSNTKVDKKVEPKSCDKTHTCPPCPAPELLGPSVFLFPPKPKDTLMISRTPEVTCVVVDVEHEDPEVKFNWYVDGVEVHNAKTKPREEQYNSTYRVVSVLTVLHQDWLNGKEYKCKVSNKALPAPIEKTISKAKGQPREPQVYTLPPSREEMTKNQVSLTCLVKGFYPSDIAVEWESNGQPENNYKTTPPVLDSDGSFFLYSKLTVDKSRWQQGNVFSCSVMHEALHNHYTQKSLSLSPGK
light: DIQMTQSPSSLSASVGDRVTITCRASQDIRSNLNWYQQKPGGAVKLLIYYTSRLHSGVPSRFSGSGSGTDYTLTISSLQPEDFATYFCQQSEKLPRTFGGGTKVEIRRTVAAPSVFIFPPSDEQLKSGTASVVCLLNNFYPREAKVQWKVDNALQSGNSQESVTEQDSKDSTYSLSSTLTLSKADYEKHKVYACEVTHQGLSSPVTKSFNRGEC
notes: copies: 2 + 2
binding result [1]: no binding (tested: 10 µg/mL and 1 µg/mL)
binding result [2]: no binding (tested: 10 µg/mL and 1 µg/mL)
binding result [3]: no binding (tested: 10 µg/mL and 1 µg/mL)
binding result [4]: no binding (tested: 10 µg/mL and 1 µg/mL)
